For assay [1], the target named is HIV-1 BaL Env trimer (cleaved gp120/gp41) on Gag-Env VLPs (HIV-1 strain BaL). Description: native gel or EMSA.
In assay [2] the target is HIV-1 JR-FL Env trimer (cleaved gp120/gp41) from JR-FL Gag-Env VLPs (HIV-1 strain JR-FL). Description: native gel or EMSA.

“HIV-1 BaL Env trimer (cleaved gp120/gp41) on Gag-Env VLPs (complex)”: the stoichiometry N in assay [1] worked out at 3.

In assay [2], “HIV-1 JR-FL Env trimer (cleaved gp120/gp41) from JR-FL Gag-Env VLPs (complex)” returned a stoichiometry N of 3.

The record behind these values is article PMC2930513.
